Assay results taken from patent US20250002610A1 (Genmab, published 2025).

T1: cynomolgus monkey DR4 with death domain deletion on ExpiCHO-S cells (cynomolgus monkey (Macaca fascicularis))
T1 construct: also called cynomolgus DR4
T1 chain: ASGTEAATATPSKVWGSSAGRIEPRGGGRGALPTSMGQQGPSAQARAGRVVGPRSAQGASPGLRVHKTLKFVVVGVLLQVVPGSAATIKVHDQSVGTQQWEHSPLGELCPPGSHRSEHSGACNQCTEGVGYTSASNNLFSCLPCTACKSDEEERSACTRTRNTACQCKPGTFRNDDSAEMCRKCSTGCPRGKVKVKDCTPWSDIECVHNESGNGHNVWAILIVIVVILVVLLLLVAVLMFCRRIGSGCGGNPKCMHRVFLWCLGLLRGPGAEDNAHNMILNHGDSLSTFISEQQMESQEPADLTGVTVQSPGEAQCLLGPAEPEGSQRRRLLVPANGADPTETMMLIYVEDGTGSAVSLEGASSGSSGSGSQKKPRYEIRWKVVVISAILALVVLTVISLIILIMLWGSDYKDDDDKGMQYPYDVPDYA

T2: human FAPα (Fibroblast activation protein alpha), cell surface expressed (human, UniProt Q12884 1-760)
T2 construct: Endogenous on human lung fibroblasts and CAFs
T2 sequence: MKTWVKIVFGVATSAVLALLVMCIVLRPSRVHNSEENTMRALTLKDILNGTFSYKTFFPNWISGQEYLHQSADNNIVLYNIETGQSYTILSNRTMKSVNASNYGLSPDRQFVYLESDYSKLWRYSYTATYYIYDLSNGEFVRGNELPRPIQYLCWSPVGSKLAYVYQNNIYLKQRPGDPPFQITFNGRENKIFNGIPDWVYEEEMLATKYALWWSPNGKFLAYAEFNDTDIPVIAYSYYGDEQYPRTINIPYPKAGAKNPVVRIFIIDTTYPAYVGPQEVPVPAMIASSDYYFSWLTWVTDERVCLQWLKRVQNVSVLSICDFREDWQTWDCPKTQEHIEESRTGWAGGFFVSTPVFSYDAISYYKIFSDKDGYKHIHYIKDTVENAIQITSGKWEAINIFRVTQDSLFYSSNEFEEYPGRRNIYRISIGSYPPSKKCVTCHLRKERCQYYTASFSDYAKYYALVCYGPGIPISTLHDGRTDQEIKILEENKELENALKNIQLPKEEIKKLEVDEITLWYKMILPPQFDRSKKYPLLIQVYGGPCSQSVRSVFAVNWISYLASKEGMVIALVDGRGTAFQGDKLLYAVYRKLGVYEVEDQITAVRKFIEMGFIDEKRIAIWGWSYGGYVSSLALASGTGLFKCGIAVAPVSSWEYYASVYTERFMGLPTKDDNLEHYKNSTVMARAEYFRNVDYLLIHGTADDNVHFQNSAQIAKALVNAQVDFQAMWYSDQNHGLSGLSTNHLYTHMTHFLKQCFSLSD


Columns and labels:
[1] = molecular target: T1, cynomolgus monkey DR4 with death domain …; assay: flow cytometry, ExpiCHO-S cells expressing cynomolgus monkey DR4, n = 3
Procedure: Binding of BisG1-FAPα-FERL/DR4-FERR, BisG1-DR4-FEAL/b12-FEAR and IgG1-DR4-FERR to DR4 of various species commonly used for nonclinical toxicology studies was assessed by flow cytometry using ExpiCHO-S cells transiently expressing DR4 from different animal species. In contrast to other species, rodents only express one DR which has highest homology with human DR5. Therefore, ExpiCHO-S cells transiently expressing rat and mouse DR protein were used instead. All DR constructs lack the intracellular DD to avoid apoptosis of transfected cells upon DR(4) activation. IgG1-b12 was used as negative control.

[2] = molecular target: T2, human FAPα (Fibroblast activation …); assay: flow cytometry, human lung fibroblasts, n = 2
Procedure: Human lung fibroblasts and CAFs (50,000 cells/well) were seeded in 96-Well round bottom plates (Greiner Bio-one, Cat #650101). Antibody dilutions were prepared using fluorescence-activated cell sorting (FACS) buffer, consisting of phosphate buffer saline (PBS, Lonza, Cat #BE17-517Q)+1% Bovine Serum Albumin (BSA, Roche, Cat #10735086001)+0.02% Sodium Azide (Bio-World, Cat #41920044-3). Plates were centrifuged, supernatant was removed, cells were resuspended in 50 μL of human Fc Block (BD, Cat #564220, diluted 1:100 in FACS buffer) and 50 μL of viability stain TO-PRO-3 Iodide (Thermo Fisher, Cat #T3605, diluted 1: 25,000 in FACS buffer), and incubated for 15 min at 4° C. Plates were washed three times with FACS buffer. Plates were centrifuged, supernatant was removed, cells were resuspended in 50 μL of antibody dilutions (concentration range 90-0.0005 μg/mL, three-fold dilution steps using FACS buffer) of BisG1-FAPα-FERL/DR4-FERR, BisG1-FAPα-FERL/b12-FERR, BisG1-b12-FERL/b12-FERR (top six concentrations only for CAFs culture) or IgG1-FAPα-FERL (top four concentrations only for CAFs culture) and incubated for 30 min at 4° C. Cells were washed three times with FACS buffer and resuspended in 50 μL of Fluorescein isothiocyanate (FITC)-labeled polyclonal antibody goat anti-mouse IgG1 (Jackson Immuno Research, Cat #109-096-097, diluted 1:100 in FACS buffer). […] Antibody binding to viable cells (TO-PRO-3 negative) was analyzed by flow cytometry on a FACSCelesta™ (BD biosciences) and data were processed using FlowJo_v10.8.1 (FlowJo LLC). Geomean fluorescence intensity, gMFI, was determined and visualized using GraphPad Prism. Binding curves were analyzed using nonlinear regression analysis. […]
Binding of FAPα-targeting monoclonal antibody clones, IgG1-FAPα-FEAL and IgG1-FAP5-FEAL, and bispecific antibodies carrying a binding arm derived from the two FAPα-binding clones (BisG1-FAPα-FEAL/b12-FEAR and BisG1-FAP5-FEAL/b12-FEAR) to human lung fibroblasts, which endogenously express FAPα, was compared and analyzed by flow cytometry.

Row | Binder | EC50 [1] | EC50 [2]
1 | IgG1-DR4-FERR (antibody, V domains shown, Bivalent monoclonal IgG1 lambda) VH: QVQLQESGPGLVKPSGTLSLTCAVSGGSISSYSWWSWIRQPPGKGLEWIGELYHSGSTNYNPSLKSRVTISVDKSKNQFSLKLRSVTAADTAVYYCVRGVATIDYWGQGTLVTVSS VL: QSALTQPPSASGSPGQSVTISCTGTSSDVGGYNFVSWYQQDPGKAPKLLIYEVTKRPSGVPDRFSGSKSGNTASLTVSGLQAEDEADYYCSSYAGSNNVMFGGGTKLTVLG | 1.01 µg/mL | 
2 | BisG1-FAPα-FEAL/b12-FEAR (bispecific antibody, human IgG1, kappa, Fab-arm exchange of IgG1-FAPα-FEAL and IgG1-b12-FEAR) heavy 1: EVQLLESGGGLVQPGGSPRLSCEASGFTFSSYALSWVRQAPGKGLEWVSAISGSGGGRYYADSVKGRFTISRDNSKNTLFLQMNSLRAEDTAVYYCAKEGYSSSGTYWDHWGQGTLVTVSSASTKGPSVFPLAPSSKSTSGGTAALGCLVKDYFPEPVTVSWNSGALTSGVHTFPAVLQSSGLYSLSSVVTVPSSSLGTQTYICNVNHKPSNTKVDKRVEPKSCDKTHTCPPCPAPEFEGGPSVFLFPPKPKDTLMISRTPEVTCVVVAVSHEDPEVKFNWYVDGVEVHNAKTKPREEQYNSTYRVVSVLTVLHQDWLNGKEYKCKVSNKALPAPIEKTISKAKGQPREPQVYTLPPSREEMTKNQVSLTCLVKGFYPSDIAVEWESNGQPENNYKTTPPVLDSDGSFLLYSKLTVDKSRWQQGNVFSCSVMHEALHNHYTQKSLSLSPG light 1: AIQMTQSPSSVSASVGDRVTITCRASQGVSSWLAWYQQKPGRAPKLLIYVASTLQSGVPSRFSGSGSGTDFTLTINSLQPEDFATYYCQQANSFPPTFGQGTRLEMKRTVAAPSVFIFPPSDEQLKSGTASVVCLLNNFYPREAKVQWKVDNALQSGNSQESVTEQDSKDSTYSLSSTLTLSKADYEKHKVYACEVTHQGLSSPVTKSFNRGEC heavy 2: QVQLVQSGAEVKKPGASVKVSCQASGYRFSNFVIHWVRQAPGQRFEWMGWINPYNGNKEFSAKFQDRVTFTADTSANTAYMELRSLRSADTAVYYCARVGPYSWDDSPQDNYYMDVWGKGTTVIVSSASTKGPSVFPLAPSSKSTSGGTAALGCLVKDYFPEPVTVSWNSGALTSGVHTFPAVLQSSGLYSLSSVVTVPSSSLGTQTYICNVNHKPSNTKVDKRVEPKSCDKTHTCPPCPAPEFEGGPSVFLFPPKPKDTLMISRTPEVTCVVVAVSHEDPEVKFNWYVDGVEVHNAKTKPREEQYNSTYRVVSVLTVLHQDWLNGKEYKCKVSNKALPAPIEKTISKAKGQPREPQVYTLPPSREEMTKNQVSLTCLVKGFYPSDIAVEWESNGQPENNYKTTPPVLDSDGSFFLYSRLTVDKSRWQQGNVFSCSVMHEALHNHYTQKSLSLSPG light 2: EIVLTQSPGTLSLSPGERATFSCRSSHSIRSRRVAWYQHKPGQAPRLVIHGVSNRASGISDRFSGSGSGTDFTLTITRVEPEDFALYYCQVYGASSYTFGQGTKLERKRTVAAPSVFIFPPSDEQLKSGTASVVCLLNNFYPREAKVQWKVDNALQSGNSQESVTEQDSKDSTYSLSSTLTLSKADYEKHKVYACEVTHQGLSSPVTKSFNRGEC |  | 0.044 µg/mL
